In article PMC5389562:

Biological target: T1, mCherry-U2AF35 (UniProt Q01081)
T1 sequence: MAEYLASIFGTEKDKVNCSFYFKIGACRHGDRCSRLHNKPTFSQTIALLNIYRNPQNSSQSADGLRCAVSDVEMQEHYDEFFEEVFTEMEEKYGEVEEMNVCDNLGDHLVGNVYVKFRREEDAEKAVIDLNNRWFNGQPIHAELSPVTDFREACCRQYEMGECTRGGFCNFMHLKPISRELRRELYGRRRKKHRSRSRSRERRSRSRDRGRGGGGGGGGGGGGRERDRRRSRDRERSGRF
Test: single-molecule colocalization/bleaching
Conditions: 5' GMPS; HEK293T nuclear extract expressing fusion proteins, preincubated 15 min with ATP/phosphocreatine or ATP-depleted at 30 C; pre-mRNA 62.5 nM; +ATP reactions …

In the case of GloC pre-mRNA, the binding signal (% RNA colocalized) is reported as 20.
